Assay results as given in US20240343835A1, “COVALENT HETEROBIVALENT ANTIBODY INHIBITORS AND LIGANDS” (UNIVERSITY OF NOTRE DAME DU LAC, priority 2015, published 2024).
Values belong to the binder of their own block, whether it stands above or below them. Ends that are not written are not given here.

Legend:
[1] = biological target: Trastuzumab (anti-HER2/neu IgG); assay: method not stated in the legend
[2] = biological target: Trastuzumab (anti-HER2/neu IgG); assay: fluorescence quenching: ligand titrated into trastuzumab, F/F0 against Ligand (nM)
[3] = biological target: Trastuzumab (anti-HER2/neu IgG); assay: fluorescence quenching, ligand titrated into 30 nM trastuzumab
[4] = biological target: Trastuzumab (anti-HER2/neu IgG); assay: fluorescence quenching
[5] = biological target: Trastuzumab (anti-HER2/neu IgG); assay: fluorescence quenching, ligand titrated into 30 nM trastuzumab; apparent Kd
[6] = biological target: Trastuzumab (anti-HER2/neu IgG); assay: flow cytometry on HER2-expressing cells, FITC signal of cHBL-tagged trastuzumab

B2: Trast-DNP (Trastuzumab binding peptide tagged with DNP) (peptide)
peptide: LLGPYELWELSH
modifications: not fully specified (C-terminus); also: DNP attached via EG2 spacer, attachment site not given here
EC50 (read off the curve) [2]: 200 nM | Kd [3]: 200 nM

B3: Trast-Napht-DNP (peptide)
peptide: LLGPYELWELSH
modifications: also: DNP attached via EG2 spacer, 2-naphthaleneacetic acid attached via ethylene glycol spacer, attachment sites not given here
EC50 (read off the curve) [2]: 50 nM | fold increase in observed affinity against the peptide without napht [4]: > 4 fold | Kd [5]: 46.6 nM

More lines, now with the values ahead:

Kd [1]: 1200 nM
B1: Trastuzumab binding peptide … (peptide)
peptide: LLGPYELWELSH

percent of maximum FITC signal at 1 µM cHBL [6]: 50%
B4: Trast-cHBL (Peptide-…) (peptide)
peptide: LLGPYELWELSH
modifications: also: 5(6)-carboxyfluorescein via EG2 spacer, EG6x2 spacer on peptide, branching Lys with 2-naphthaleneacetic acid on alpha-amine and EG4-isothiocyanate on epsilon-amine, attachment sites not given here
